Reference: the supplement of paper PMC9170038

What was measured:
[1] = test system: MS2 coat protein; assay: apparent KD of MS2 coat protein; higher = weaker reporter binding; settings: Eterna round: R101
Protocol: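 RNA-MaP: designed FMN/MS2 RNA switches (84 nt design region) are transcribed on-chip within common flanks and titrated with SNAP-549-labelled MS2 coat protein (about 1-3000 nM) in 100 mM Tris pH 7.5, 80 mM KCl, 4 mM MgCl2, without or with 200 uM FMN. Median apparent KD per design; activation ratio = KD,OFF / KD,ON.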

[2] = test system: MS2 coat protein; assay: apparent KD of MS2 coat protein, switch ON state; designed switch direction (-1 OFF switch, 1 ON switch): 1; higher = weaker reporter binding; settings: FMN input: 0 or 200 uM; Eterna round: R93 (includes R88 designs)
Procedure, shortened: (§1)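 Apparent KD per design is the median of normalised cluster binding-curve fits. Designed RNA switches transcribed on-chip from Illumina sequencing clusters were titrated with SNAP-549-labelled MS2 coat protein in twofold steps from 0.7 or 1.5 nM to 3 µM, with 0.8–1.5 h down to 10–20 min per step. Buffer: 100 mM Tris-HCl pH 7.5, 80 mM KCl, 4 mM MgCl2, without or with constant ligand.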

[3] = test system: MS2 coat protein; assay: apparent KD of MS2 coat protein, switch OFF state (with FMN for OFF switches, without FMN for ON switches); designed switch direction (-1 OFF switch, 1 ON switch): 1; higher = weaker reporter binding; settings: FMN input: 0 or 200 uM; Eterna round: R93 (includes R88 designs)
Procedure, shortened: as §1

Sequence: GCGGCCCGGGAGAAGGACAUGAGGAUCACCCAUGUCGCCGGGCCCGGGAAACCGGGCCCGGCCAUGUAGGAUAUCCCGGGCCGC [#This is a good prank] (puzzle (switch architecture): Inverted Exclusion NG 2)
- apparent KD of MS2 coat protein ([1]; input ligand: FMN 200 uM): 5.14 nM
- apparent KD of MS2 coat protein ([1]; input ligand: none): 4.59 nM

Sequence: CUUACUUUGUAGAAGGGUGACAUGAGGAUCACCCAUGUGCGUCGCCUGAAAGACCAGGGUACGCCACAGGAUAUACAAAGUAAG [Titerexe] (puzzle (switch architecture): Inverted Same State NG 2)
- apparent KD of MS2 coat protein ([1]; input ligand: FMN 200 uM): 128 nM
- apparent KD of MS2 coat protein ([1]; input ligand: none): 28.4 nM

Sequence: UUGAAUCGAAACAUGAGGAUCACCCAUGUGUUGUAAUUGACAUAGGAUAUGUAUAUACUUUUAUAAUAGAAGGAUGACGAUACU [S-state NG3 31] (puzzle (switch architecture): Same State NG 3)
- apparent KD of MS2 coat protein ([1]; input ligand: FMN 200 uM): 12 nM
- apparent KD of MS2 coat protein ([1]; input ligand: none): 15.8 nM

Sequence: UGUAAUAUUAUAGGAUAUGGAUACGAUACGUAUCCAGAAGGGUGAUUAAACUAUAAUCUAUACAUGAGGAUCACCCAUGUUUAU [AtrosYaY10] (puzzle (switch architecture): Same State NG 1)
- apparent KD of MS2 coat protein ([1]; input ligand: FMN 200 uM): 157 nM
- apparent KD of MS2 coat protein ([1]; input ligand: none): 173 nM

Sequence: CGCUAUGAUGGGUGUAAUAGAGCAUAGGAUAUGCUUGUACAUGAGGAUCACCCAUGUUAUAUUUUGCAGAAGGGUGCAUUUGCG [JR #DistanceFar #Hairpin #NP SLSSNG3 Sub072] (puzzle (switch architecture): Small Loop Same State NG 3)
- apparent KD of MS2 coat protein ([1]; input ligand: FMN 200 uM): 255 nM
- apparent KD of MS2 coat protein ([1]; input ligand: none): 460 nM

Sequence: AAAAAAAAAAGGCAGGAUAUCCAAAAAAAAACAUGAGGAUCACCCAUGUAAAAAAAAAAAAAAUGGGAGAAGGGCCAAAAAAAAAA [Mat - Mod of Eli]
- apparent KD of MS2 coat protein [2]: 24.9 nM
- apparent KD of MS2 coat protein [3]: 46.3 nM

Sequence: CGAAGACAUGAGGAUCACCCAUGUGGGAAUAUGGGAGGAUAUACAAAGACGAGAGUCAGAGUAGAAGGCCUAGGAU [salish99-ss1-105]
- apparent KD of MS2 coat protein [2]: 29.5 nM
- apparent KD of MS2 coat protein [3]: 78.7 nM

Sequence: AAAAAACAUGAGGAUCACCCAUGUCAAAAGACGUGAGGAUAUGUACAGACUUCGGUCUGUACAGAAGGCACGAAAA [SS1 - 1037]
- apparent KD of MS2 coat protein [2]: 12.9 nM
- apparent KD of MS2 coat protein [3]: 20.1 nM

Sequence: AAAAAACAUGAGGAUCACCCAUGUGCAAAAUUCGCAGGAUAUUUUUCUUUUAAAUGAGAGGGAGAAGGGUGUAAAA [Nob's Hobby 23 - Jieux - Same State 1]
- apparent KD of MS2 coat protein [2]: 21.6 nM
- apparent KD of MS2 coat protein [3]: 22.1 nM

Sequence: AGGAAACAUGAGGAUCACCCAUGUAGAAAUAUGGGAGGAUAUACAAAGACGAAAGUCAAAGUAGAAGGCCUAAAAA [Mat - Same State 1 - Mod - D151]
- apparent KD of MS2 coat protein [2]: 17.6 nM
- apparent KD of MS2 coat protein [3]: 57.1 nM

Sequence: AAUAUAUUAUUUAAGGAUAUCAUAGGAAACACAUGAGGAUCACCCAUGUGGGAAACCUGGUCGGGUGAGAAGGUGGAUAAUAUAU [Samwise Clockwise 35 - Jieux - Same State 2]
- apparent KD of MS2 coat protein [2]: 13.8 nM
- apparent KD of MS2 coat protein [3]: 35.2 nM

Sequence: AACCGGGAGAAGCAGGAUAUUGCCUCUUCAACAUGAGGAUCACCCAUGUAAGUAAAUUGACGAUACAAGAAGGGCUGCUCCUUAC [Raatgees]
- apparent KD of MS2 coat protein [2]: 30.5 nM
- apparent KD of MS2 coat protein [3]: 74.3 nM

Sequence: GGGAGGAAGAGAGAGGAUAUCCAAAGGAAAACAUGAGGAUCACCCAUGUAAAAGGUAGGAAAUUGGGAGAAGGCUCAAGAGAAGG [salish99-ss2-050]
- apparent KD of MS2 coat protein [2]: 18.2 nM
- apparent KD of MS2 coat protein [3]: 26.6 nM

Sequence: AAAAGACAUGAGGAUCACCCAUGUAAAGACAUAGGAGGAUAUGUCGUGAAAAAAGACUUGGCAGAAGGCCUUUGUC [SS1 - 46]
- apparent KD of MS2 coat protein [2]: 21 nM
- apparent KD of MS2 coat protein [3]: 25.6 nM

Sequence: AGAAAUAAACCGAAGGAUAUCCAAACCUAAACAUGAGGAUCACCCAUGUAAAAGAAAAUAAAAUGGGAGAAGGUCGGAAAUAAGA [Designing denovo 13]
- apparent KD of MS2 coat protein [2]: 17.7 nM
- apparent KD of MS2 coat protein [3]: 25.3 nM

Sequence: AUAACAACGUAUGAGGAUAUCCUUAAUAAAACAUGAGGAUCACCCAUGUGAAUAAAAUAACAAUUGGAGAAGGCAUACGUACAAU [SS 2 M 52]
- apparent KD of MS2 coat protein [2]: 15.4 nM
- apparent KD of MS2 coat protein [3]: 20.8 nM

Sequence: AAAAGGGCGACACAGGAUAUGUUGACUCUAACAUGAGGAUCACCCAUGUGCGUUUAGGGUCGUGCGCAGAAGGGUGUAGCUCGGA [Orvele]
- apparent KD of MS2 coat protein [2]: 12.9 nM
- apparent KD of MS2 coat protein [3]: 24.1 nM

Sequence: AAAAAACAUGAGGAUCACCCAUGUGAAAAAAACGCAGGAUAUCCCUUUUUUAAAUGGGAGGGAGAAGGGUGAAAAA [Nob's Hobby 14 - Jieux - Same State 1]
- apparent KD of MS2 coat protein [2]: 36.3 nM
- apparent KD of MS2 coat protein [3]: 45.9 nM

Sequence: GAAAAAAAAAGGCAGGAUAUCCAAAAAAAAACAUGAGGAUCACCCAUGUAAAAAAAAAAAAAAUGGGAGAAGGGCCAAAAAAAAA [Mat - Same State 2 - Mod - 151]
- apparent KD of MS2 coat protein [2]: 25.5 nM
- apparent KD of MS2 coat protein [3]: 35.2 nM

Sequence: UAAAAACAUGAGGAUCACCCAUGUAGAAACAUGGGAGGAUAUACAAAGACGAAAGUCAAAGUAGAAGGCCUAAAAU [Mat - Same State 1 - Mod - D169]
- apparent KD of MS2 coat protein [2]: 51.4 nM
- apparent KD of MS2 coat protein [3]: 43.4 nM

Sequence: AAUAUACAUGAGGAUCACCCAUGUUUUAAUAACGCAGGAUAUACGGGUGAAAACAGCAUAGUAGAAGGGCGAAAAA [SameState1 Malc#1]
- apparent KD of MS2 coat protein [2]: 31.8 nM
- apparent KD of MS2 coat protein [3]: 106 nM

Sequence: GUGAGGAAGAGAGAGGAUAUCCAAAGGAAAACAUGAGGAUCACCCAUGUAAAAGGUAGGAAAUUGGGAGAAGGCUCAAGAGAGAG [salish99-ss2-067]
- apparent KD of MS2 coat protein [2]: 40.2 nM
- apparent KD of MS2 coat protein [3]: 34.7 nM

Sequence: AAAAAACAUGAGGAUCACCCAUGUGCAAAAUUCGCAGGAUAUUUUUUUUUUAAAUGAGAGGGAGAAGGGUGUAAAA [Nob's Hobby 22 - Jieux - Same State 1]
- apparent KD of MS2 coat protein [2]: 27.4 nM
- apparent KD of MS2 coat protein [3]: 33 nM

Sequence: GAAAAACAUGAGGAUCACCCAUGUAAGAUAAACACAGGAUAUGCGAAAAGAAAGAAAGAAGCAGAAGGGUGAAAAG [Mat - Same State 1 - Tesla mod - 42]
- apparent KD of MS2 coat protein [2]: 15.2 nM
- apparent KD of MS2 coat protein [3]: 43.8 nM

Sequence: AAUAGACAUGAGGAUCACCCAUGUAGAAUUAUGGGAGGAUAUACAAAGACGAGAGUCAGAGUAGAAGGCCUAGGAU [salish99-ss1-149]
- apparent KD of MS2 coat protein [2]: 24.7 nM
- apparent KD of MS2 coat protein [3]: 51.8 nM

Sequence: AAAUAAAUGACUCAGGAUAUAUCAUAGAGUACAUGAGGAUCACCCAUGUUUUAAUAACAUGUUUGGUAGAAGGGAGUCAAUAAAU [LROPPY Same State 2 - v06_deltaG=1.99]
- apparent KD of MS2 coat protein [2]: 25.8 nM
- apparent KD of MS2 coat protein [3]: 127 nM

Sequence: AAAAGGCUAAACUAGGAUAUGGGUGUCUAAACAUGAGGAUCACCCAUGUGAUGGCAAAACAAAGCUCAGAAGGAGUGGUAGCCCA [Riquceri]
- apparent KD of MS2 coat protein [2]: 12.4 nM
- apparent KD of MS2 coat protein [3]: 56.7 nM

Sequence: AAAAAAAAAAGACAGGAUAUCCAAAAAAAAACAUGAGGAUCACCCAUGUAAAAAAAAAAAAAAUGGGAGAAGGGUCAAAAAAAAAA [Louisiana 5 - Jieux - Same State 2]
- apparent KD of MS2 coat protein [2]: 21.9 nM
- apparent KD of MS2 coat protein [3]: 36.5 nM

Sequence: AAGAAACAUGAGGAUCACCCAUGUAAGAUAAACACAGGAUAUGCGAAAAUAAAUAAAUAAGCAGAAGGGUGAAGAA [Mat - Same State 1 - Tesla mod - 66]
- apparent KD of MS2 coat protein [2]: 14.8 nM
- apparent KD of MS2 coat protein [3]: 42.4 nM

Sequence: AAAAGACAUGAGGAUCACCCAUGUAAAAACGUAGGAGGAUAUGUCUGGAAAACAUGCUGGACAGAAGGCCUGUGUC [SS1 - 29]
- apparent KD of MS2 coat protein [2]: 17.6 nM
- apparent KD of MS2 coat protein [3]: 25.2 nM

Sequence: AAGAAAGUUUACGAGGAUAUGUUCCGCAUAACAUGAGGAUCACCCAUGUGAACAAGAAAGGCGACGCAGAAGGCGUGAGCAAAGA [Atanansori]
- apparent KD of MS2 coat protein [2]: 26.1 nM
- apparent KD of MS2 coat protein [3]: 403 nM

Sequence: AUAAUAAUAAGGUAGGAUAUGCUAAAGUAAACAUGAGGAUCACCCAUGUAAAGAAAAAAACUCAUGUAGAAGGGCCAGAAAUAAA [moonwalk 4]
- apparent KD of MS2 coat protein [2]: 80.1 nM
- apparent KD of MS2 coat protein [3]: 71.5 nM

Sequence: AGGAGACAUGAGGAUCACCCAUGUGAGAAGAGGCGAGGAUAUCGAAAAAAAGAAAGAAAACGAGAAGGCGCGAGAA [salish99-SS1-015]
- apparent KD of MS2 coat protein [2]: 37.6 nM
- apparent KD of MS2 coat protein [3]: 64.5 nM

Sequence: AGGAGACAUGAGGAUCACCCAUGUGAGAAGAGGCGAGGAUAUCGAAAGAAAGAAGAGAAACGAGAAGGCGCGAGUG [salish99-SS1-026]
- apparent KD of MS2 coat protein [2]: 28.1 nM
- apparent KD of MS2 coat protein [3]: 40.9 nM

Sequence: UACAGACAUGAGGAUCACCCAUGUAGAAUUAUGGGAGGAUAUACAAAGACGAGAGUCAGAGUAGAAGGCCUAGGAU [salish99-ss1-164]
- apparent KD of MS2 coat protein [2]: 23.5 nM
- apparent KD of MS2 coat protein [3]: 61.3 nM

Sequence: AAUCCAAAUAGUCAGGAUAUCAAAAAUAAGACAUGAGGAUCACCCAUGUACUAAGUAAAAGUAAAUGAGAAGGGACAGGGUGAAA [JR_SS002_Sub402]
- apparent KD of MS2 coat protein [2]: 138 nM
- apparent KD of MS2 coat protein [3]: 145 nM

Sequence: GGGAGACAUGAGGAUCACCCAUGUGAGAAGAGGCGAGGAUAUCGAAAGAAAGAAGAGAAACGAGAAGGCGCGAGAC [salish99-SS1-061]
- apparent KD of MS2 coat protein [2]: 30.4 nM
- apparent KD of MS2 coat protein [3]: 45.1 nM

Sequence: AUAAAAUACUGUGAGGAUAUCCAUAAUAAAACAUGAGGAUCACCCAUGUGUAGAUAAUAAUAAUGGGAGAAGGCACAUAAUAAAU [SS2 M41]
- apparent KD of MS2 coat protein [2]: 24.2 nM
- apparent KD of MS2 coat protein [3]: 27.6 nM
